One test concerns the target T1, FcγRIa (human, UniProt P12314 16-288, limits assumed, biotinylated).
T1 construct: Bought His-tagged protein captured on anti-His chip; also called CD64 Protein, Human, Recombinant (His Tag), Biotinylated
Description: SPR (Biacore 8K); His-tagged FcγR captured on anti-His chip.

The next test addresses T2, FcγRIIIa-F158 (human, UniProt P08637 17-208).
T2 construct: extracellular domain; Bought His-tagged protein
Described as above.

In another test the target is T3, FcγRIIIa-V158 (human, UniProt P08637 17-208).
T3 construct: Bought His-tagged protein
T3 sequence (P08637 17-208 F176V limits assumed): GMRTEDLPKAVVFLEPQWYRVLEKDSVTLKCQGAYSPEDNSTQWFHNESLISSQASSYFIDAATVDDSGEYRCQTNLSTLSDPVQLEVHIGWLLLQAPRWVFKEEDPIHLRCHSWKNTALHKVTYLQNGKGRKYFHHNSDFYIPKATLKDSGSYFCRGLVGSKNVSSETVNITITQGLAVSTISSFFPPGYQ
Described as above.

Test [1] deals with human 4-1BB (CD137) on cells (human, UniProt Q07011 24-255). Description: cell-based or functional assay.
Sequence of human 4-1BB (CD137) on cells (Q07011 24-255): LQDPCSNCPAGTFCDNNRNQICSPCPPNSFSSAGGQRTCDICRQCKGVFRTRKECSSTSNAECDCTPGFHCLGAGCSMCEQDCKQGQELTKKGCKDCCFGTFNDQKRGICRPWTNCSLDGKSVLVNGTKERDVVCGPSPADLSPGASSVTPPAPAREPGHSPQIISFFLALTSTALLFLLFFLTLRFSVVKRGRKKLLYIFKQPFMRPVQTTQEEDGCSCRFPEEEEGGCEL
In test [2] the target is T4, full length human EpCAM on cells (human, UniProt P16422 24-314).
T4 construct: the cell line is named under assay; also called EpCAM on DiFi, HPAF-II and A549 tumor cells; CHO-S cells transfected with full length human EpCAM
T4 sequence: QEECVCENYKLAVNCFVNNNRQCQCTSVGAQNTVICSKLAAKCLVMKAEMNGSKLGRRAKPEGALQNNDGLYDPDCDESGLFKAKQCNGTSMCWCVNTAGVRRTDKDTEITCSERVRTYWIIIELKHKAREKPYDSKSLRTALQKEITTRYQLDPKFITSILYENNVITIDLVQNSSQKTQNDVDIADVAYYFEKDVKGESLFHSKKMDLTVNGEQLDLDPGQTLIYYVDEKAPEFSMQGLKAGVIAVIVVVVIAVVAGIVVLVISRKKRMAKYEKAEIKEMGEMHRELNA
In words: flow cytometry on DiFi tumor cells.
Description: Binding to the EpCAM-expressing human tumor cell lines DiFi, HPAF-II and A549 by bivalent EpCAM antibodies or bispecific antibodies carrying one EpCAM-binding arm was analyzed by flow cytometry. […] Next, cells were washed once (A-D) or twice (E) in FACS buffer, re-suspended in 100 μL FACS buffer and analyzed on a BD LSRFortessa FACS (BD Biosciences, USA), Celesta (BD Biosciences, USA) or iQue (Sartorius, Germany). Binding curves were analyzed using non-linear regression (sigmoidal dose-response with variable slope) using GraphPad Prism V7.02 software (GraphPad Software, San Diego, CA, USA).

Another test deals with T5, FcγRIIa-H131 (human, UniProt P12318 34-218, limits assumed).
T5 construct: Bought His-tagged protein; also called CD32A Protein, Human, Recombinant (167 His, His Tag)
T5 sequence (looked up): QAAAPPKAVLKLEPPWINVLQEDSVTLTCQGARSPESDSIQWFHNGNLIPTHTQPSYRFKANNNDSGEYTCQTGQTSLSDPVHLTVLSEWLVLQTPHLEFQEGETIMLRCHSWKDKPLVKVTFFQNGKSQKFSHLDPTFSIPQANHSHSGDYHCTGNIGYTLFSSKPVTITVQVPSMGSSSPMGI
In words: SPR (Biacore 8K); His-tagged FcγR captured on anti-His chip.

A further test deals with T6, FcγRIIa-R131 (human, UniProt P12318 34-218, limits assumed).
T6 construct: Bought His-tagged protein; also called CD32A Protein, Human, Recombinant (167 Arg, His & AVI Tag)
T6 sequence (looked up): T5 sequence (looked up) with H134R
Described as above.

In another test the target is T7, FcγRIIb (human, UniProt P31994 43-217, limits assumed).
T7 construct: Bought His-tagged protein; also called CD32B/Fcgr2b Protein, Human, Recombinant (His & AVI Tag)
T7 sequence (looked up): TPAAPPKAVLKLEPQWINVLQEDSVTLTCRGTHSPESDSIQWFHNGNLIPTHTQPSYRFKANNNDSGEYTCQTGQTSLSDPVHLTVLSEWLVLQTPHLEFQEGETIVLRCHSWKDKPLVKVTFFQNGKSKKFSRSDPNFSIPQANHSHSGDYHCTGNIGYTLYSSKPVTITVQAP
The description is as above.

In test [3] the target is T8, neonatal Fc receptor (FcRn), His-tagged (SinoBiological, cat. no. CT009-H08H-B) (UniProt P55899 24-297). Description: SPR kinetics assay at pH 6.0; His-tagged FcRn captured on anti-His chip, antibody 0-500 nM; mean of three experiments.
T8 sequence (P55899 24-297 limits assumed, form in doubt): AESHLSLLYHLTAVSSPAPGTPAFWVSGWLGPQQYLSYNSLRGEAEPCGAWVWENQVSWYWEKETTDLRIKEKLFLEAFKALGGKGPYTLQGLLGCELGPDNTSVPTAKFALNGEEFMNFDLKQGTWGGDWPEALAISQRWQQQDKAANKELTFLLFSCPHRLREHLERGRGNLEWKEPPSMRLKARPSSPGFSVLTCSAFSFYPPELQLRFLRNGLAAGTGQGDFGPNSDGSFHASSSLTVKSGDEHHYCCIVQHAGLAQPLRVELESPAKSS
Description: (§1) In a separate experiment, binding to neonatal Fc receptor (FcRn) was tested by SPR, using a kinetics assay with the following changes to the methods described above. […] Experiments were performed three times at pH 6.0 (under acidic conditions, at which IgG binds to FcRn) and two times at pH 7.4 (binding to IgG is not expected at this pH).
Test [4] has as its target T8, neonatal Fc receptor (FcRn), His-tagged …. Description: SPR kinetics assay at pH 6.0; His-tagged FcRn captured on anti-His chip, antibody 0-500 nM.
Description: as §1

Numbering of substitutions follows the chain as printed.

T1 sequence (P12314 16-288 limits assumed): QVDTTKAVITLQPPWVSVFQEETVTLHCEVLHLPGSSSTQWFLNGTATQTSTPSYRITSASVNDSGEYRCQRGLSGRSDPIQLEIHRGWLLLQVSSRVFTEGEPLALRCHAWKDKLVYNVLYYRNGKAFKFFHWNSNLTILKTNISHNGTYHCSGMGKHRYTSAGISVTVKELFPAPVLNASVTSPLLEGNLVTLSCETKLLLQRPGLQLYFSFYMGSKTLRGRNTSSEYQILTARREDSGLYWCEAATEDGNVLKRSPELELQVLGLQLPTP
T2 sequence (P08637 17-208): as the sequence (P08637 17-208 F176V limits assumed) above, with V160F counted along it
Description for FcγRIIIa-F158: (§2) At the end of each cycle, the surface was regenerated using 10 mM Glycine-HCl pH 1.5 (Cytiva, cat. no. BR100354).
Description for FcγRIIIa-V158: as §2
Description for FcγRIIa-H131: as §2
Description for FcγRIIa-R131: as §2
Description for FcγRIIb: as §2
Description for FcγRIa: as §2

B1: bsIgG1-EpCAM-A37-FERL/CD137-009-HC7LC2-FEAR (bispecific antibody)
heavy 1: not shown
light 1: EIELTQSPGTLSLSPGERATLSCRASQTISNNYLAWYQQKRGQAPRLLIYAASSRATGIPDRFSGTGSGTDFTLTISRLEPEDFAVYYCAQGELYPRQFGGGTKLEIKRTVAAPSVFIFPPSDEQLKSGTASVVCLLNNFYPREAKVQWKVDNALQSGNSQESVTEQDSKDSTYSLSSTLTLSKADYEKHKVYACEVTHQGLSSPVTKSFNRGEC
heavy 2: EVQLVESGGGLVQPGRSLRLSCTASGFSLNDYWMSWVRQAPGKGLEWVGYIDVGGSLYYAASVKGRFTISRDDSKSIAYLQMNSLKTEDTAVYYCARGGLTYGFDLWGQGTLVTVSSASTKGPSVFPLAPSSKSTSGGTAALGCLVKDYFPEPVTVSWNSGALTSGVHTFPAVLQSSGLYSLSSVVTVPSSSLGTQTYICNVNHKPSNTKVDKRVEPKSCDKTHTCPPCPAPEFEGGPSVFLFPPKPKDTLMISRTPEVTCVVVAVSHEDPEVKFNWYVDGVEVHNAKTKPREEQYNSTYRVVSVLTVLHQDWLNGKEYKCKVSNKALPAPIEKTISKAKGQPREPQVYTLPPSREEMTKNQVSLTCLVKGFYPSDIAVEWESNGQPENNYKTTPPVLDSDGSFFLYSRLTVDKSRWQQGNVFSCSVMHEALHNHYTQKSLSLSPG
light 2: DIVMTQSPSSLSASVGDRVTITCQASEDISSYLAWYQQKPGKAPKRLIYGASDLASGVPSRFSASGSGTDYTFTISSLQPEDIATYYCHYYATISGLGVAFGGGTKVEIKRTVAAPSVFIFPPSDEQLKSGTASVVCLLNNFYPREAKVQWKVDNALQSGNSQESVTEQDSKDSTYSLSSTLTLSKADYEKHKVYACEVTHQGLSSPVTKSFNRGEC
Consider B1, for which, in the test with FcγRIa, the binding result is reported as “no binding (tested: 3,000 nM (highest concentration tested))”. The binding result with FcγRIIIa-F158 is on record as “no binding (tested: 10,000 nM (highest concentration tested))”. Further, the binding result with FcγRIIIa-V158 was “no binding (tested: 10,000 nM (highest concentration tested))”. Also, in [1], the “EC50 CD107a GMFI (donor 1)” value was 0.0503 mg/L, the “EC50 CD107a GMFI (donor 2)” value worked out at 0.03 mg/L, the “EC50 CD107a GMFI (donor 3)” value is 0.0217 mg/L and the “EC50 CD107a GMFI (donor 4)” value was determined as 0.012 mg/L. In addition, in [1], the “EC50 CD107a GMFI (donor 6)” value stood at 0.021 mg/L, the “EC50 GzmB GMFI (donor 1)” value is 0.0179 mg/L, the “EC50 GzmB GMFI (donor 2)” value is 0.0176 mg/L and the “EC50 GzmB GMFI (donor 3)” value worked out at 0.0204 mg/L. Also, in [1], the “EC50 GzmB GMFI (donor 4)” value was 0.0121 mg/L, the “EC50 GzmB GMFI (donor 5)” value amounted to 0.0201 mg/L and the “EC50 GzmB GMFI (donor 6)” value is 0.0224 mg/L.

B2: bsIgG1-b12-FERL/CD137-009-HC7LC2-FEAR (bispecific antibody)
heavy 1: QVQLVQSGAEVKKPGASVKVSCQASGYRFSNFVIHWVRQAPGQRFEWMGWINPYNGNKEFSAKFQDRVTFTADTSANTAYMELRSLRSADTAVYYCARVGPYSWDDSPQDNYYMDVWGKGTTVIVSSASTKGPSVFPLAPSSKSTSGGTAALGCLVKDYFPEPVTVSWNSGALTSGVHTFPAVLQSSGLYSLSSVVTVPSSSLGTQTYICNVNHKPSNTKVDKRVEPKSCDKTHTCPPCPAPEFERGPSVFLFPPKPKDTLMISRTPEVTCVVVDVSHEDPEVKFNWYVDGVEVHNAKTKPREEQYNSTYRVVSVLTVLHQDWLNGKEYKCKVSNKALPAPIEKTISKAKGQPREPQVYTLPPSREEMTKNQVSLTCLVKGFYPSDIAVEWESNGQPENNYKTTPPVLDSDGSFLLYSKLTVDKSRWQQGNVFSCSVMHEALHNHYTQKSLSLSPG
light 1: EIVLTQSPGTLSLSPGERATFSCRSSHSIRSRRVAWYQHKPGQAPRLVIHGVSNRASGISDRFSGSGSGTDFTLTITRVEPEDFALYYCQVYGASSYTFGQGTKLERKRTVAAPSVFIFPPSDEQLKSGTASVVCLLNNFYPREAKVQWKVDNALQSGNSQESVTEQDSKDSTYSLSSTLTLSKADYEKHKVYACEVTHQGLSSPVTKSFNRGEC
heavy 2: B1 heavy 2
light 2: B1 light 2
notes: also called bsIgG1-b12-FERL/CD137-HC7LC2-FEAR; bsIgG1-b12-FERLxCD137-009-HC7LC2-FEAR
Take B2: the binding result in test [2] is recorded as “no binding (tested: up to 30 µg/mL)”.

B3: IgG1-EpCAM-A37-FERL (antibody)
heavy: not shown
light: B1 light 1
Turning to B3, the binding result is listed as “no binding (tested: 3,000 nM (highest concentration tested))” in the test with FcγRIa; “no binding (tested: 10,000 nM (highest concentration tested))” in the test with FcγRIIa-H131; “no binding (tested: 10,000 nM (highest concentration tested))” in the test with FcγRIIIa-F158; “no binding (tested: 10,000 nM (highest concentration tested))” in the test with FcγRIIa-R131; “no binding (tested: 10,000 nM (highest concentration tested))” with FcγRIIb; “no binding (tested: 10,000 nM (highest concentration tested))” with FcγRIIIa-V158. The molecule also registered a Kd in test [3] of 0.23 µM. Besides, the off-rate (koff) in test [4] is 0.0413 s⁻¹. The same molecule registered a kon in test [4] of 180000 M⁻¹ s⁻¹.

B4: IgG1-CD137-009-HC7LC2-FEAR (antibody)
heavy: B1 heavy 2
light: B1 light 2
Turning to B4, the binding result with FcγRIa is “no binding (tested: 3,000 nM (highest concentration tested))”; with FcγRIIa-H131, “no binding (tested: 10,000 nM (highest concentration tested))”; with FcγRIIIa-F158, “no binding (tested: 10,000 nM (highest concentration tested))”; with FcγRIIa-R131, “no binding (tested: 10,000 nM (highest concentration tested))”; in the test with FcγRIIb it was “no binding (tested: 10,000 nM (highest concentration tested))”; in the test with FcγRIIIa-V158, “no binding (tested: 10,000 nM (highest concentration tested))”. In addition, in test [3], binding was characterised by a dissociation constant (Kd) of 0.375 µM. Besides, in test [4], the koff was 0.0539 s⁻¹. In test [4], this molecule gave a kon of 143000 M⁻¹ s⁻¹.

B5: bsIgG1-CD137-009-HC7LC2-FEAL/EpCAM-A37-FEAR (bispecific antibody)
heavy 1: B1 heavy 2 with F405L, R409K
light 1: B1 light 2
heavy 2: not shown
light 2: B1 light 1
With B5, the values for the binding result in the test with FcγRIa, with FcγRIIIa-F158 and with FcγRIIIa-V158 were “no binding (tested: 3,000 nM (highest concentration tested))”, “no binding (tested: 10,000 nM (highest concentration tested))” and “no binding (tested: 10,000 nM (highest concentration tested))”, respectively.

B6: bsIgG1-b12-FERL/b12-FEAR (bispecific antibody)
heavy 1: B2 heavy 1
heavy 2: B2 heavy 1 with R246G, D275A, L415F, K419R
light: B2 light 1
notes: also called b12-FERLxb12-FEAR; bsIgG1-ctrl-b12-FERL/b12-FEAR
With B6, the binding result in test [2] is “no binding (tested: up to 30 µg/mL)”.

The values are drawn from patent US20230295335A1 (published 2023).
